Among the targets are RecQWT (Escherichia coli, UniProt P15043 1-609); RecQ523 (Escherichia coli, UniProt P15043 1-523); RecQY555A (Escherichia coli, UniProt P15043 1-609, Y555A).
What all share (test): fluorescence anisotropy; SF50: 50 mM Tris-HCl pH 7.5, 50 mM NaCl, 1 mM DTT, 5 mM MgCl2, 50 µg/mL BSA, 25 °C; anisotropy with 10 nM forked duplex
Details in all cases: protein: recombinant; label: 3'-fluorescein on fork2; fork: 33 bp duplex with two 21-nt ssDNA arms (3' arm of fork1, 5' arm of fork2)

B1: forked duplex (fork1/fork2) (mixed)
DNA 1: CGTTGCGCAATTAAGCTCTAAGCCATCCGCAAATTTTTTTTTTTTTTTTTTTTT
DNA 2: TCCTTTTGATAAGAGGTCATTTTTGCGGATGGTTAGAGCTTAATTGCGCAACG
As to B1, the Kd worked out at 13 ± 4 nM in the data set with RecQWT, 60 ± 2 nM in the data set with RecQ523 and 46 ± 2 nM with RecQY555A.

The values are drawn from publication PMC4464074, “The HRDC domain of E. coli RecQ helicase controls single-stranded DNA translocation and double-stranded DNA unwinding rates without affecting mechanoenzymatic coupling”.
